Experimental data from patent US20250121082A1 (SHANDONG BOAN BIOTECHNOLOGY, published 2025).
Like-named read-outs stand apart in the source and are kept apart here.

Key:
Test in all cases: cell-based or functional assay
[1] = target: T1, CD228 on cells stably expressing exogenous CD228 gene (MC38-CD228, A375-CD228, A549-CD228) (UniProt P08582 20-709)
T1 sequence (looked up): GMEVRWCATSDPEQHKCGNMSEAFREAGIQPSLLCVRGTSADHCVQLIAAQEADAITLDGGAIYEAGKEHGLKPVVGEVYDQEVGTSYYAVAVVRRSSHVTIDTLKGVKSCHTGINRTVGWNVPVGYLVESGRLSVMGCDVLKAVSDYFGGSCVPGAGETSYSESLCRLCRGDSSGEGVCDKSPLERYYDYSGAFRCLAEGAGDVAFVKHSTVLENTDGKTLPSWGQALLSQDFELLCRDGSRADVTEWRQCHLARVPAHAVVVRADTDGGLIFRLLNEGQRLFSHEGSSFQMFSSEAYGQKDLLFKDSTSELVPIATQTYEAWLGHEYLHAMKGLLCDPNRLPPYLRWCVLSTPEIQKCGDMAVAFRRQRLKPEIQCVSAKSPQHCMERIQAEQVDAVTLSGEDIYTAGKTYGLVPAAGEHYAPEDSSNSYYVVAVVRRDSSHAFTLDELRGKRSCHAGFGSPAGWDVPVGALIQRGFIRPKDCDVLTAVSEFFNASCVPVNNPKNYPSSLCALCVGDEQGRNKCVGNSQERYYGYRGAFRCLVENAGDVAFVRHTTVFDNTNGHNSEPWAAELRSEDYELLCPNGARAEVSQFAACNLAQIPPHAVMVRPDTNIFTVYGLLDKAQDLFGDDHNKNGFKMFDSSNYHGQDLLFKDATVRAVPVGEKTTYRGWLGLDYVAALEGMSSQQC

[2] = target: T2, CD228 protein on human melanoma SK-MEL-5 cells (human, UniProt P08582 20-709)
T2 sequence (looked up): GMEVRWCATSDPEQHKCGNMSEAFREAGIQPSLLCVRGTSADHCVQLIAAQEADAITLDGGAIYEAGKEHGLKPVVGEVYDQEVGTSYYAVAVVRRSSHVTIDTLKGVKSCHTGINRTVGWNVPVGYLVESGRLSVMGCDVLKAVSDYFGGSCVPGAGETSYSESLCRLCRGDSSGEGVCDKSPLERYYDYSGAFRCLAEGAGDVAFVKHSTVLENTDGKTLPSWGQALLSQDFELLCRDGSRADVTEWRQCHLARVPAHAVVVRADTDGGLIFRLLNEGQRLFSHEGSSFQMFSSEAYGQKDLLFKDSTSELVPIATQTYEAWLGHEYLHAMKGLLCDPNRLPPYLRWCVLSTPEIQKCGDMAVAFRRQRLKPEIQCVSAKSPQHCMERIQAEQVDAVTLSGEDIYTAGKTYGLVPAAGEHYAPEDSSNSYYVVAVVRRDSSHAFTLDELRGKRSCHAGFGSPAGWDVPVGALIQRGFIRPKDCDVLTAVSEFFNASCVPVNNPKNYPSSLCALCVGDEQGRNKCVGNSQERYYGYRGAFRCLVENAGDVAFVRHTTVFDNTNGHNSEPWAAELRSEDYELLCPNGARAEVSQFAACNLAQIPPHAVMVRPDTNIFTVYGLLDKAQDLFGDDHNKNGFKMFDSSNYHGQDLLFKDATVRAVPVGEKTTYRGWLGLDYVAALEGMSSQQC

[3] = target: T1, CD228 on cells stably expressing …; remark: listed apart in the source

IC50 (ng/mL), inhibition of A375-CD228 cell proliferation [1]: 61.8 ng/mL | IC50 (ng/mL), inhibition of MC38-CD228 cell proliferation [1]: 102 ng/mL | IC50 (ng/mL), inhibition of SK-MEL-5 cell proliferation [2]: 11.5 ng/mL | IC50 (ng/mL), inhibition of A375-CD228 cell proliferation [3]: 13.9 ng/mL | IC50 (ng/mL), inhibition of A549-CD228 cell proliferation [3]: 15.2 ng/mL
B1: CA149-BNLD11 (antibody, human IgG1, kappa, V domains shown)
VH: EVQLVESGGGVVQPGRSLRLSCAASGFTFSSYAMHWVRQAPGKGLEWVAVISFDGSNKYYTDSVKGRFTISRDNSKNTLYLQMNSLRAEDTAVYYCAREVPYYYGSGPFDYWGQGTLVTVSS
VL: EIVLTQSPATLSVSPGERATLSCRASQSVSSNLAWYQQKPGQAPRHLIDGASSRASGIPDRFSGSGSGTDFTLTISRLEPEDFAVYYCQQYGSSPPFTFGPGTKVDIKR
modifications: BNLD11 linker-drug coupled to the TCEP-reduced antibody; sites not stated; BNLD11 linker-drug (MC-β-Ala-(glucuronide)PAB-MMAE) coupled to the TCEP-reduced antibody, average DAR 4.1; sites not stated
